Data taken from PMC4780118, “Mechanisms involved in xyloglucan catabolism by the cellulosome-producing bacterium Ruminiclostridium cellulolyticum” (Scientific Reports, 2016).

Legend:
SBP2458 = biological target: T1, SBP2458 (Ruminiclostridium cellulolyticum, UniProt B8I622); assay: isothermal titration calorimetry; type: binding; settings: 150 mM NaCl, 25 mM HEPES pH 7.0, 20 °C; single-site model
T1 construct: gene Ccel_2458

pNP release kinetics = substrate: O=[N+]([O-])c1ccc(O[C@H]2OC[C@@H](O)[C@H](O)[C@H]2O)cc1; assay: pNP release kinetics; type: biochemical, Ruminiclostridium cellulolyticum; settings: assay as in ref. 19
purified protein [1] = substrate: O=[N+]([O-])c1ccc(O[C@@H]2O[C@H](CO)[C@@H](O)[C@H](O)[C@H]2O)cc1; assay: purified protein; settings: assay as in ref. 19
purified protein [2] = substrate: O=[N+]([O-])c1ccc(O[C@@H]2O[C@H](CO)[C@H](O)[C@H](O)[C@H]2O)cc1; assay: purified protein; settings: assay as in ref. 19

T1 sequence (B8I622 entry or part of it): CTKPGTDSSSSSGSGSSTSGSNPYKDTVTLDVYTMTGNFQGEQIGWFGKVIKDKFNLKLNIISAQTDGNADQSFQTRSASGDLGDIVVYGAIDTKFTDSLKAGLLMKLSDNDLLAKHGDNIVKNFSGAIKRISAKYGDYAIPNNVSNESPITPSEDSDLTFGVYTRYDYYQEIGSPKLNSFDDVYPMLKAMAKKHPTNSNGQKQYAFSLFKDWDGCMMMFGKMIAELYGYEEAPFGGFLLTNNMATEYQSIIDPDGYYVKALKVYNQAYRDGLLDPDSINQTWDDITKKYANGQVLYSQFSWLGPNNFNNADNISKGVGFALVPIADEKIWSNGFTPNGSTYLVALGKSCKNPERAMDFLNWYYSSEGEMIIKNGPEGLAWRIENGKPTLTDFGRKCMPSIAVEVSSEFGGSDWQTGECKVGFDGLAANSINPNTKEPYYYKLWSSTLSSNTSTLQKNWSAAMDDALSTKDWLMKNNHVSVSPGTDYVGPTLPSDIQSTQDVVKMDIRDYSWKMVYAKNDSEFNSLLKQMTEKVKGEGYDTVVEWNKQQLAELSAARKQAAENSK

Work on `OC[C@H]1OC(O)[C@H](O)[C@@H](O)[C@@H]1O[C@@H]1O[C@H](CO[C@H]2OC[C@@H](O)[C@H](O)[C@H]2O)[C@@H](O[C@@H]2O[C@H](CO[C@H]3OC[C@@H](O)[C@H](O)[C@H]3O)[C@@H](O[C@@H]3O[C@H](CO[C@H]4OC[C@@H](O)[C@H](O)[C@H]4O)[C@@H](O)[C@H](O)[C@H]3O)[C@H](O)[C@H]2O)[C@H](O)[C@H]1O` (stereo partly shown) [XXXG] yielded a Kd (SBP2458) of 3.65 ± 1.1 nM.

B1: Xyl31A (Ruminiclostridium cellulolyticum H10) (protein)
chain: MKFLNGYWMSKEGYSLYYPSEAYRIEKSGDVLRIFAPCNQINHRGDTLGGPALTIELSSPAEDVIRISVYHYKGVKKAGPYFELNTPGISPSISEDEDAVWFGSGQIKARIDKKTYNIDYYRGDERLTGSGWRHLAYIKHESGQTYMREQLDLDVGECVYGLGERFTPFVKNGQTVDIWNQDGGTCTEQSYKNIPFYITNRGYGVFVNDPGLVSFEICSEVVSRSQFSVEGESLDYFIIGGSDCKEVISNYTALTGRPAIPPAWSFGLWLSTSFTTNYDEKTVTSFINGMSKRRIPLSVFHFDCFWMKEFNWCDFIWDKDVFPDPKKMLSKLKEKGLHICVWINSYVSQESVLFDEGMQKGYFIHKKNGSVWQWDMWQPGMAIVDFTNPDACNWFSQKLLNLVDMGVDCFKTDFGERIPTEDVVYYDGSDPVKMHNFYTYLYNRTVFDTLKQVGKEAVVFARSATAGSQKFPVHWGGDCTADFSSMAESLRGGLSLGLCGFGFWSHDIGGFEQTATADVYKRWLAFGMLSSHSRLHGSTGYRVPWLYDEEAVDVLRFFANLKCRLMPYIYKTAIQASQQGLPSARAMFVEFPEDPACTTLDRQYMLGDSLLVAPVFSKSGLVEYYLPLGEWYNLLTGEIVTGGSYRKEKHNYMSLPLFVRPGSLLAIGDNEEETVYEYAQGVRLLLTPLADGYEASTSVYEKDGHEALNVTVNRKESDITVIAEGDGKPWSIKLCGITAKGCTGGTIEKEQDGIVFMPGNSTGSYTVRIL
notes: C-terminal His6 (pET28a); E. coli BL21(DE3)
With B1 the Km (pNP release kinetics) was 1290 ± 150 µM, the kcat (pNP release kinetics) was 12 ± 1.2 μmol product per μmol enzyme × min^−1 and the kcat/Km (pNP release kinetics) was 155 M⁻¹ s⁻¹.

B2: Glu3A (Ruminiclostridium cellulolyticum H10) (protein)
chain: MQYDQIDKKIDELLSMMTLEEKAGMCHGAGLFRTAGVPRLGIPPLVFSDGPMGIRNEFADDNWNTVGGNTDFVTYLPANTALAATFNRTLAESLGEVLGCEARGRGKDVILAPGVNIIRTPLCGRNYEYFSEDPILTAELAASFIKGVQRFDVAACVKHFAANNQETERLAVSAEVDELTLRELYFPAFEASVRAGVLTVMTAYNRLNGTFCSHSRQLITEILREEWGFNGVVVSDWGAVHDTESPAIAGLDIEMNVTSNFNEYFFAKPLINAIKDGKIPERMLDDKVRRILRLMFRLNMFSKDRKRGGFNLPQHQQAVLDAAKESFVLLKNDREVLPLNADGIKTVAVIGSNADKKHSSGGDSAAVKALYEVTPLSGIVMRLASGAKVTYYPGCPDETHYKEEFHIPSNADEKTRADIEEKARAADEDYRKIQMRLEDEAIQAAKTADAVIFIGGNGHEQESEGRDRPDMALPYEQDKLLSRVLDANPNTVVVIISGSPVNMSGWIDKAPTVMQGFFSGMHGGTALAAVLFGDENPSGHLPFTIPLKEEETGASALGEYPGGETVCYSEGLFVGYRYHDAFNIPPLFPFGYGLSYTTFSLANESFRRLPCVGTEYEIHVDITNSGNRPGAQSVQLYVEPEKKDGSPIRTLKGFEKTYLNPDETKTITFKLDERTFSEFRPHEGWVFVPGNYTIHIGTSSRELPIAIALAL
With B2 the Km (purified protein [1]) was 44600 ± 19000 µM, the kcat (purified protein [1]) was 1,350 ± 164 μmol product per μmol enzyme × min^−1 and the kcat/Km (purified protein [1]) was 500 M⁻¹ s⁻¹.

B3: Gal42A (Ruminiclostridium cellulolyticum H10) (protein)
chain: MDKYMPIGMNFPHILHGGDYNPDQWLKAPKILDEDFRLMKLAHCNVMTIGIFSWMALEPEEGKFDFSWLDEIMDKLSKNEMTAILATPSGAKPSWMSQKYPEILRTQADRLKDFHGGRHNHCLTSPIYRKKVSQINRLLAERYARHPALILWHISNEYSGECHCPLCQEAFRSFLMKKYEGDLERLNHEWWTGFWAHRYTDWSQIESPSPRGEHETHGLILDWKRFVSHQTIDFLKNEIKPLRELTPEISVTTNLMGTFPGLEYRELSKEIDVVSWDNYPTWHTSEQPDWKIGIRTSFVHDINRSLKQGKPFMMMESTPSTVNWQKVNKLKRPGMHMLSSLQAVAHGSDTVQYFQWRKSRGSFEKFHGAVVDHVGHENTRVFREVAQVGQVLEKLDEVVGTTVHPKVAIIFDWENRWAMEEAQALARDRIKYEETCVAHYTAFWKRGVSVDIIGARDNLSQYKLVIAPMLYLTHPGVGERIETFVNEGGTFVATYWSGIVNENDLCHLGGFPGPLRAVTGIWSEEIDTMHPDENNSLILSDNSLGLSGTYRVQDFCDLVHAESAEVLARYGEEFYAGRPALTVNRFGKGNAYYMAARTGEDFLEDFYNALMKKLTLSRTLDVELPCGVTSQLRTDGQNRYIFLMNFNHEKQDIQLTKGLTDMFTGEIRQGMLELAPFDVKVLKAKI
With B3 the Km (purified protein [2]) was 1560 ± 300 µM, the kcat (purified protein [2]) was 4,800 ± 320 μmol product per μmol enzyme × min^−1 and the kcat/Km (purified protein [2]) was 51300 M⁻¹ s⁻¹.
